Assay results published in publication PMC5314765.

T1: Abf2p (mature) (Saccharomyces cerevisiae, UniProt Q02486 27-183)
T1 sequence: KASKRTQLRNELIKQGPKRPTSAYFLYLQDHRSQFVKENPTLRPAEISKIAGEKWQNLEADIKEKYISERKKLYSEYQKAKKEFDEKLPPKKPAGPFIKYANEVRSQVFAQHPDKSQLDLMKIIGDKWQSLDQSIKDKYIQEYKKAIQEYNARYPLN

B1: GC_22 (dsDNA)
DNA 1: GAAGATATCCGGGTCCCAATAA
DNA 2: TTATTGGGACCCGGATATCTTC
B2: Af2_22 5-BrU6 (dsDNA)
DNA 1: AATAATAAATTATATAATATAA
DNA 2: TTATATTATATAATTTATTATT
modifications: T6 replaced by 5-bromouracil

Legend:
Abf2p (mature) [1] = target: T1, Abf2p (mature); assay: ITC
Abf2p (mature) [2] = target: T1, Abf2p (mature); assay: X-ray crystallography

| Binder | binding result (Abf2p (mature) [1]) | binding result (Abf2p (mature) [2]) |
| --- | --- | --- |
| B1 | binds |  |
| B2 |  | binds |
